Reference: the supplement of paper PMC10567573

B1: CD69 (parent)
chain: FVAENSSLHPESGQENDATSPHFS

Variants of: B1
Test: protein stability index of a GFP-peptide fusion (GPS, HEK-293T) (PSI 1-6); higher = more stable
Conditions: c terminus: a fixed tail appended
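Also: lentivirally expressed fusions sorted by FACS into six bins by GFP to DsRed ratio, PSI derived from sequencing read proportions per bin multiplied by bin number.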

Point of comparison: FVAENSHLHPESGQENDATSPHFS, protein stability index 2.83. Against it:
- FVAENSSLNPESGQENDATSPHFS — lower, 2.8
- FVAENSSLSPESGQENDATSPHFS — higher, 3.32
- FVAENSSLDPESGQENDATSPHFS — higher, 3.8
- FVAENSSLHPESGMENDATSPHFS — higher, 3.28
- FVAENSSLHPESGVENDATSPHFS — higher, 3.2
- FVAENSSLHPESGHENDATSPHFS — higher, 3.47
- FVAENSSLHPESGWENDATSPHFS — lower, 2.48
- FVAENSSLHPESGCENDATSPHFS — higher, 2.95
- FVAENSSLHPESGLENDATSPHFS — higher, 2.87
- FVAENSSLHPESGTENDATSPHFS — higher, 2.99
- FVAENSSLHPESGKENDATSPHFS — higher, 3.13
- FVAENSSLHPESGPENDATSPHFS — lower, 2.66
- FVAENSSLHPESGGENDATSPHFS — lower, 2.58
- FVAENSSLHPESGFENDATSPHFS — higher, 2.84
- FVAENSSLHPESGRENDATSPHFS — lower, 2.76
- FVAENSSLHPESGIENDATSPHFS — higher, 3.04
- FVAENSSLHPESGSENDATSPHFS — lower, 2.64
- FVAENSSLHPESGNENDATSPHFS — higher, 2.87
- FVAENSSLHPESGYENDATSPHFS — lower, 2.4
- FVAENSSLHPESGAENDATSPHFS — higher, 3.06
- FVAENSSLHPESGEENDATSPHFS — higher, 3.51
- FVAENSSLHPESGDENDATSPHFS — higher, 3.93
- FVAENSSLHPDSGQENDATSPHFS — higher, 3.22
- FVAENSSLHPTSGQENDATSPHFS — higher, 2.84
- FVAENSSLHPLSGQENDATSPHFS — lower, 1.6
- FVAENSSLHPCSGQENDATSPHFS — lower, 1.96
- FVAENSSLHPVSGQENDATSPHFS — lower, 2.38
- FVAENSSLHPPSGQENDATSPHFS — lower, 2.55
- FVAENSSLHPQSGQENDATSPHFS — lower, 2.48
- FVAENSSLHPFSGQENDATSPHFS — lower, 1.82
- FVAENSSLHPASGQENDATSPHFS — lower, 2.51
- FVAENSSLHPHSGQENDATSPHFS — lower, 2.36
- FVAENSSLHPYSGQENDATSPHFS — lower, 2.22
- FVAENSSLHPISGQENDATSPHFS — lower, 2.39
- FVAENSSLHPSSGQENDATSPHFS — lower, 2.52
- FVAENSSLHPGSGQENDATSPHFS — lower, 2.46
- FVAENSSLHPRSGQENDATSPHFS — lower, 2.12
- FVAENSSLHPNSGQENDATSPHFS — higher, 3.21
- FVAENSSLHPMSGQENDATSPHFS — lower, 2.36
- FVAENSSLHPKSGQENDATSPHFS — lower, 2.35
- FVAENSSLHPWSGQENDATSPHFS — lower, 2.05
- FVAENSSLHPESNQENDATSPHFS — higher, 3.33
- FVAENSSLHPESAQENDATSPHFS — lower, 2.69
- FVAENSSLHPESTQENDATSPHFS — higher, 3.59
- FVAENSSLHPESRQENDATSPHFS — lower, 2.49
- FVAENSSLHPESYQENDATSPHFS — higher, 3.06
- FVAENSSLHPESKQENDATSPHFS — higher, 3.24
- FVAENSSLHPESPQENDATSPHFS — higher, 3.32
- FVAENSSLHPESIQENDATSPHFS — lower, 2.61
- FVAENSSLHPESMQENDATSPHFS — higher, 3.38
- FVAENSSLHPESWQENDATSPHFS — lower, 1.97
- FVAENSSLHPESLQENDATSPHFS — lower, 2.49
- FVAENSSLHPESDQENDATSPHFS — higher, 3.4
- FVAENSSLHPESSQENDATSPHFS — higher, 3.31
- FVAENSSLHPESQQENDATSPHFS — higher, 3.09
- FVAENSSLHPESVQENDATSPHFS — higher, 3.21
- FVAENSSLHPESFQENDATSPHFS — lower, 2.69
- FVAENSSLHPESEQENDATSPHFS — higher, 3.41
- FVAENSSLHPESCQENDATSPHFS — higher, 2.89
- FVAENSSLHPESHQENDATSPHFS — lower, 2.46
- FVAENPSLHPESGQENDATSPHFS — lower, 2.58
- FVAENYSLHPESGQENDATSPHFS — higher, 2.85
- FVAENHSLHPESGQENDATSPHFS — higher, 3.01
- FVAENLSLHPESGQENDATSPHFS — lower, 1.5
- FVAENMSLHPESGQENDATSPHFS — lower, 2.55
- FVAENQSLHPESGQENDATSPHFS — higher, 3.08
- FVAENWSLHPESGQENDATSPHFS — lower, 2.07
- FVAENFSLHPESGQENDATSPHFS — lower, 2.21
- FVAENGSLHPESGQENDATSPHFS — higher, 3.37
- FVAENRSLHPESGQENDATSPHFS — lower, 2.27
- FVAENNSLHPESGQENDATSPHFS — lower, 2.69
- FVAENVSLHPESGQENDATSPHFS — lower, 2.48
- FVAENTSLHPESGQENDATSPHFS — higher, 3.34
- FVAENKSLHPESGQENDATSPHFS — lower, 2.72
- FVAENISLHPESGQENDATSPHFS — lower, 2.38
- FVAENSKLHPESGQENDATSPHFS — lower, 2.51
- FVAENSYLHPESGQENDATSPHFS — lower, 1.93
- FVAENSQLHPESGQENDATSPHFS — higher, 3.37
- FVAENSCLHPESGQENDATSPHFS — lower, 2.46
- FVAENSRLHPESGQENDATSPHFS — lower, 2.13
- FVAENSDLHPESGQENDATSPHFS — higher, 4.39
- FVAENSWLHPESGQENDATSPHFS — higher, 3.07
- FVAENSFLHPESGQENDATSPHFS — lower, 2.27
- FVAENSVLHPESGQENDATSPHFS — lower, 2.73
- FVAENSILHPESGQENDATSPHFS — lower, 2.39
- FVAENSALHPESGQENDATSPHFS — higher, 3.13
- FVAENSPLHPESGQENDATSPHFS — higher, 3.11
- FVAENSELHPESGQENDATSPHFS — higher, 4.06
- FVAENSMLHPESGQENDATSPHFS — lower, 2.22
- FVAENSGLHPESGQENDATSPHFS — higher, 3.29
- FVAENSLLHPESGQENDATSPHFS — lower, 2.67
- FVAENSTLHPESGQENDATSPHFS — higher, 3.24
- FVAENSNLHPESGQENDATSPHFS — higher, 3.3
